Source: the supplement of paper PMC10567573

B1: CCDC70 (parent)
chain: FSFKVSRWMGLACFRSLAASSPSI
B2: FBXO3 (parent)
chain: GGFPIIRDQIFRYVHDPECVATTG

Variants of: B1
Assay: protein stability index of a GFP-peptide fusion (GPS, HEK-293T) (PSI 1-6); higher = more stable
Settings: c terminus: a fixed tail appended
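Further: lentivirally expressed fusions sorted by FACS into six bins by GFP to DsRed ratio, PSI derived from sequencing read proportions per bin multiplied by bin number.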

Protein stability index of substitutions, site by site:
L11: G 3.16, F 3.35, Y 3.04, T 3.12, I 3.88, S 3.51, H 5.37, P 2.72, R 4.02, N 2.65, D 2.84
P22: E 3.78, Q 3.8, D 2.97, T 3.71, N 3.22, A 1.68, F 2.51, K 2.38
M9: Y 3.2, N 2.15, L 4.57, D 4.03, H 2.8, I 4.43, K 2.21
W8: L 3.27, Q 3.47, S 2.08, T 2.58, F 4.12, E 1.29, K 2.29, P 2.4
R7: A 2.22, V 3.67, D 2.9, M 2.33, Y 2.52, I 4.23, S 2.14, H 3.25, K 2.3
V5: W 2.13, I 1.72, M 2.01, K 2.28, G 2.54, L 2.22, C 2.92, P 2.21, Y 2.98, N 2.78, H 2
S2: F 3.87, T 2.69, R 1.49, P 2.37, K 2.59, V 1.84, C 3.54, D 2.19, N 2.32
R15: E 3.26, V 3.28, M 3.86, S 1.7, T 2.79, D 2.71, A 3.76
K4: E 1.92, P 1.65, T 2.38, G 2.99, S 3.25, N 2.51
S23: D 3.88, F 3.09, N 3.56, V 2.53
F3: R 3.02, K 1.39, I 2.92, P 2.57, E 2.21, T 1.83, N 2.5
A19: T 3.93, Q 2.32, P 2.09, D 2.88, C 1.8, G 2.19
S16: L 2.13, A 3.04, N 3.94, R 3.88, P 3.05, G 3.37, C 2.56, F 2.55
S6: E 3.26, I 2.7, Q 3.43, R 2.09
I24: S 2.06, K 2.12, C 1.94, Q 2.38, G 2.36, D 2.72, F 2.56, E 1.44
F14: T 1.31, P 3.6, M 2.21, G 3.57, V 3.5, R 4.52, K 1.93, W 1.7, I 1.54
C13: R 3.4, K 1.46, G 2.27, L 3.57, D 2.05, H 2.36, T 1.63
G10: C 1.55, N 3.79, V 2.36, D 3.79, W 3.9, Y 4.12
L17: R 2.19, Y 2.69, A 1.7, N 2.73, T 2.3, P 3.88, G 3.62, K 2.45, M 2.77, Q 1.83
F1: Q 2.12, N 2.35, Y 2.33, W 2.34, L 4.16, S 1.38, K 2.46
S21: W 2.85, F 3.31, A 1.99, M 3.02, K 2.57, R 1.75, C 2.05, Q 2.23, D 2.8
S20: P 1.35, W 3.37, M 2.2, L 3.27, F 4.72, A 3.7, Y 2.74, I 3.96, R 4.31
A18: D 2.71, W 1.96, V 2.58, E 2.71, K 4.48, L 2.9, H 2.37, S 2.69
A12: R 1.49, P 2.56, Q 3.81, K 3.62, S 2.02, L 2

Variants of: B2
Assay: as above
Settings: c terminus: a fixed tail appended

Protein stability index: each site, then its substitutions
F3: W 2.28, V 2.38, R 2.59, S 2.59, I 2.29, A 3.13
P4: S 2.03, I 2.08, R 2.21, E 2.93, V 1.29, Q 1.75, L 2.39
D8: Q 1.7, V 2.54, I 3.17
G1: I 2.05, K 2.15, Q 2.15, Y 1.55, H 2.02, R 2.16, E 2.6, V 1.79
C19: V 2.08, M 2.31, G 1.73, T 2.09
R7: L 1.32, P 2.47, Q 3.09, Y 1.87, M 1.53, W 2.21, T 2.72
I5: P 1.85, C 1.86, F 1.58, K 1.19, D 2.61, V 1.58
G2: I 2.2, A 1.82, E 1.97, S 1.76, F 2.03, M 1.68
D16: S 2.2, Y 2.26, K 2.3, A 1.86, Q 2.25, I 2.06
I6: K 2.52, L 2.16, T 2.76, M 1.46
R12: A 2.3, S 2.89, N 3.01, L 1.64, Q 2.79, E 3.39, M 1.35, K 2.67, T 2.21
I10: F 2.13, K 3.07, T 2.54, G 2.04, V 2.36, S 3.22, D 3.6
A21: Q 2.05, S 1.93, M 2.42, L 1.45, H 2.77
E18: S 1.57, T 1.98, D 1.68, L 1.58, A 2.61
G24: I 1.5, M 1.33, K 1.96, Y 1.99, H 2.25, F 1.93, P 1.82, S 1.81, R 2.22
Q9: V 2.95, S 1.8, C 1.87, E 2.09, H 1.64, I 1.9, F 2.43
T23: L 1.57, G 1.12, N 2.13, I 1.89, S 1.59, K 2.03
V20: M 1.79, W 1.78, N 2.49
V14: D 3.78, N 2.92, I 2.57, K 2.83, P 3.32, M 2.42, F 1.92, E 3.51, H 2.28
H15: E 2.85, V 2.58, M 1.49, W 1.85, K 2.05, N 1.84, Q 2.02
T22: A 1.74, V 1.67, F 1.67, I 2.26, L 1.83, C 1.72, H 1.92, K 1.64, P 2.23
P17: L 1.81, D 2.91, V 1.46, F 2.01, G 2.11, W 2.01, I 1.43
Y13: D 3.85, C 2.32, N 3.58
F11: L 3.02, D 3.94, N 3.67, G 3.48, C 2.92, P 3.38, I 2.45
